Biological target: T1, mouse interleukin 11 receptor alpha chain 1 (mouse, UniProt Q64385 24-372)
T1 sequence (looked up): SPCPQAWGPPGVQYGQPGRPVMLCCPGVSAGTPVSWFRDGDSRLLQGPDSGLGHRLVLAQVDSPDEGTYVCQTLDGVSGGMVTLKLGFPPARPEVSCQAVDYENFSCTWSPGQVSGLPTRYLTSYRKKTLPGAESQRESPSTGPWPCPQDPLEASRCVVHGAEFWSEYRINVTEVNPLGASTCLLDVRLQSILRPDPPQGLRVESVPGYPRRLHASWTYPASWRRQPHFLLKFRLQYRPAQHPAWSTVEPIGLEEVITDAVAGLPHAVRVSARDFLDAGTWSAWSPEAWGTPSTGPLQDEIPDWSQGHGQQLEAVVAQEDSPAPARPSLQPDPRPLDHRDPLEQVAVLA
Experiment: SPR

Row | Binder | Kd [nM]
1 | recombinant human interleukin 11 (ligand, UniProt P20809 22-199, looked up) PGPPPGPPRVSPDPRAELDSTVLLTRSLLADTRQLAAQLRDKFPADGDHNLDSLPTLAMSAGALGALQLPGVLTRLRADLLSYLRHVQWLRRAGGSSLKTLEPELGTLQARLDRLLRRLQLLMSRLALPQPPPDPPAPPLAPPSSAWGGIRAAHAILGGLHLTLDWAVRGLLLLKTRL | 72
2 | recombinant mouse IL11 (ligand, UniProt P47873 22-199, looked up) PGPPAGSPRVSSDPRADLDSAVLLTRSLLADTRQLAAQMRDKFPADGDHSLDSLPTLAMSAGTLGSLQLPGVLTRLRVDLMSYLRHVQWLRRAGGPSLKTLEPELGALQARLERLLRRLQLLMSRLALPQAAPDQPVIPLGPPASAWGSIRAAHAILGGLHLTLDWAVRGLLLLKTRL | 94
